Results on 125 sequences are retold here after the supplement of paper PMC9112550, “Optimization of the antimicrobial peptide Bac7 by deep mutational scanning” (BMC Biology, 2022).
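Note: peptides expressed intracellularly from a pBAD plasmid library in pooled LB shake-flask culture, induced with 0.3% L-arabinose, DNA abundance read by NGS, three biological replicates, DESeq2 with apeglm shrinkage.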

This series deals with Escherichia coli TOP10. Description: shrunken log2 fold change of peptide-encoding DNA abundance (4.5 h post-induction vs induction); higher = less antimicrobial activity (less host growth inhibition). The settings on record: time post-induction: 4.5 h; library: site-saturation at positions 5, 18, 19, 20.
With RRIRVRPPRLPRPRPRPKWWPRP, the “shrunken log2 fold change” value is 0.0767.
On to RRIRLRPPRLPRPRPRPNITPRP, for which the “shrunken log2 fold change” value is -0.327.
The value for RRIRQRPPRLPRPRPRPTGQPRP was 0.146.
Regarding RRIRIRPPRLPRPRPRPEHGPRP, the “shrunken log2 fold change” value was -0.0885.
The value for RRIRPRPPRLPRPRPRPCGSPRP was -0.023; that for RRIRARPPRLPRPRPRPWICPRP was -0.0278; that for RRIRWRPPRLPRPRPRPALNPRP was 0.801.
On to RRIRARPPRLPRPRPRPSREPRP, for which the “shrunken log2 fold change” value is 0.816.
RRIRKRPPRLPRPRPRPVKPPRP: the “shrunken log2 fold change” value is 0.0508.
The value for RRIRTRPPRLPRPRPRPWITPRP was 0.0633; that for RRIRWRPPRLPRPRPRPICHPRP was -0.0597.
As for RRIRRRPPRLPRPRPRPYMQPRP, the figure is -0.264.
As for RRIRWRPPRLPRPRPRPVARPRP, the figure is 0.359; as for RRIRGRPPRLPRPRPRPTNDPRP, 0.564.
On to RRIRARPPRLPRPRPRPMGIPRP, for which the “shrunken log2 fold change” value is -0.00146.
As for RRIRQRPPRLPRPRPRPTRIPRP, the figure is 0.0389; as for RRIRYRPPRLPRPRPRPFMSPRP, -0.348.
As for RRIRYRPPRLPRPRPRPESHPRP, the figure is -0.226; as for RRIRKRPPRLPRPRPRPTLVPRP, 0.528; as for RRIRGRPPRLPRPRPRPEAFPRP, 1.86.
The value for RRIRPRPPRLPRPRPRPWYEPRP was -0.441.
As to RRIRDRPPRLPRPRPRPIPLPRP, the “shrunken log2 fold change” value is -0.0193.
For the sequence RRIRKRPPRLPRPRPRPTYMPRP, the “shrunken log2 fold change” value is -0.121.
The value for RRIRFRPPRLPRPRPRPEQSPRP was 0.0672.
As for RRIRWRPPRLPRPRPRPGNKPRP, the figure is -0.0586; as for RRIRFRPPRLPRPRPRPGQVPRP, -0.131; as for RRIRCRPPRLPRPRPRPSPAPRP, 1.35.
RRIRQRPPRLPRPRPRPWLKPRP: the “shrunken log2 fold change” value came out at 0.0706.
As for RRIRERPPRLPRPRPRPMVNPRP, the figure is -0.0701; as for RRIRHRPPRLPRPRPRPPKKPRP, -0.0115.
As for RRIRERPPRLPRPRPRPPIWPRP, the figure is -0.0729.
For RRIRIRPPRLPRPRPRPTPAPRP, the “shrunken log2 fold change” value is 0.198.
The value for RRIRDRPPRLPRPRPRPWLYPRP was -0.68; that for RRIRRRPPRLPRPRPRPRHHPRP was 0.0826; that for RRIRFRPPRLPRPRPRPEEEPRP was 0.78.
As for RRIRTRPPRLPRPRPRPKDGPRP, the figure is -0.0362.
Turning to RRIRLRPPRLPRPRPRPTALPRP, the “shrunken log2 fold change” value is -0.134.
On to RRIRSRPPRLPRPRPRPVWGPRP, for which the “shrunken log2 fold change” value is 0.185.
For RRIRMRPPRLPRPRPRPFTPPRP, the “shrunken log2 fold change” value is -0.397.
As for RRIRCRPPRLPRPRPRPLGFPRP, the “shrunken log2 fold change” value was -0.116.
On to RRIRFRPPRLPRPRPRPALLPRP, for which the “shrunken log2 fold change” value is -0.00442.
As for RRIRIRPPRLPRPRPRPEPEPRP, the figure is 0.421.
For RRIRGRPPRLPRPRPRPIVVPRP, the “shrunken log2 fold change” value is 0.962.
Regarding RRIRLRPPRLPRPRPRPFAFPRP, the “shrunken log2 fold change” value was -0.442.
With RRIRLRPPRLPRPRPRPRFQPRP, the “shrunken log2 fold change” value came out at 0.0867.
Consider RRIRWRPPRLPRPRPRPQYQPRP, for which the “shrunken log2 fold change” value was -0.268.
The value for RRIRTRPPRLPRPRPRPEARPRP was 0.552; that for RRIRHRPPRLPRPRPRPERRPRP was 0.0748.
With RRIRDRPPRLPRPRPRPKSNPRP, the “shrunken log2 fold change” value was -0.305.
Take RRIRLRPPRLPRPRPRPDWEPRP: the “shrunken log2 fold change” value was determined as 0.0332.
On to RRIRMRPPRLPRPRPRPSARPRP, for which the “shrunken log2 fold change” value stood at 1.07.
As for RRIRTRPPRLPRPRPRPTQAPRP, the “shrunken log2 fold change” value is 0.111.
As for RRIRGRPPRLPRPRPRPPGYPRP, the figure is 0.737; as for RRIRKRPPRLPRPRPRPEFGPRP, 0.0185; as for RRIRQRPPRLPRPRPRPAHNPRP, -0.0225.
The value for RRIRLRPPRLPRPRPRPAEFPRP was -0.011; that for RRIRRRPPRLPRPRPRPDCMPRP was 0.32; that for RRIRPRPPRLPRPRPRPFDPPRP was -0.0325.
As for RRIRCRPPRLPRPRPRPNEIPRP, the figure is -0.0995; as for RRIRDRPPRLPRPRPRPHRAPRP, -0.0299.
As to RRIRWRPPRLPRPRPRPSLHPRP, the “shrunken log2 fold change” value was -0.044.
As for RRIRWRPPRLPRPRPRPDMSPRP, the figure is -0.121.
The value for RRIRNRPPRLPRPRPRPIDYPRP was -0.168; that for RRIRTRPPRLPRPRPRPFIWPRP was -0.485.
In the case of RRIRVRPPRLPRPRPRPVMLPRP, the “shrunken log2 fold change” value was -0.0602.
On to RRIRVRPPRLPRPRPRPRVLPRP, for which the “shrunken log2 fold change” value amounted to 0.0884.
Turning to RRIRRRPPRLPRPRPRPKNHPRP, the “shrunken log2 fold change” value was -0.0297.
Take RRIRTRPPRLPRPRPRPACSPRP: the “shrunken log2 fold change” value is 0.19.
With RRIRWRPPRLPRPRPRPDNHPRP, the “shrunken log2 fold change” value was -0.299.
Take RRIRWRPPRLPRPRPRPDGHPRP: the “shrunken log2 fold change” value amounted to 0.0237.
RRIRERPPRLPRPRPRPNHIPRP: the “shrunken log2 fold change” value is -0.42.
Turning to RRIRWRPPRLPRPRPRPNSAPRP, the “shrunken log2 fold change” value is 0.104.
As for RRIRMRPPRLPRPRPRPYRAPRP, the figure is -0.691; as for RRIRLRPPRLPRPRPRPKSLPRP, -0.467.
The value for RRIRLRPPRLPRPRPRPGYQPRP was -0.133; that for RRIRRRPPRLPRPRPRPMETPRP was -0.12; that for RRIRCRPPRLPRPRPRPGDTPRP was -0.0505.
The value for RRIRMRPPRLPRPRPRPFCNPRP was -0.148; that for RRIRIRPPRLPRPRPRPHHKPRP was -1.18.
Consider RRIRNRPPRLPRPRPRPSKLPRP, for which the “shrunken log2 fold change” value was -0.582.
On to RRIRLRPPRLPRPRPRPTRCPRP, for which the “shrunken log2 fold change” value is -0.119.
For RRIRVRPPRLPRPRPRPSYVPRP, the “shrunken log2 fold change” value was -0.66.
In the case of RRIRERPPRLPRPRPRPVNGPRP, the “shrunken log2 fold change” value was -0.323.
As for RRIRARPPRLPRPRPRPAYNPRP, the figure is 0.0748.
As for RRIRNRPPRLPRPRPRPQYEPRP, the figure is -0.117; as for RRIRCRPPRLPRPRPRPKRKPRP, 0.157.
As for RRIRDRPPRLPRPRPRPRYAPRP, the figure is 0.215; as for RRIRLRPPRLPRPRPRPRWLPRP, 0.398; as for RRIRERPPRLPRPRPRPTDQPRP, -0.127.
For RRIRPRPPRLPRPRPRPFWRPRP, the “shrunken log2 fold change” value stood at 0.0788.
Take RRIRFRPPRLPRPRPRPSKMPRP: the “shrunken log2 fold change” value was -0.351.
As for RRIRTRPPRLPRPRPRPFDWPRP, the figure is 0.0371.
Regarding RRIRTRPPRLPRPRPRPLTEPRP, the “shrunken log2 fold change” value was -0.23.
As for RRIRLRPPRLPRPRPRPVEDPRP, the figure is 0.0985.
Regarding RRIRYRPPRLPRPRPRPTTRPRP, the “shrunken log2 fold change” value is -0.193.
Turning to RRIRPRPPRLPRPRPRPSYSPRP, the “shrunken log2 fold change” value is -0.149.
As for RRIRLRPPRLPRPRPRPTCDPRP, the figure is -0.202; as for RRIRDRPPRLPRPRPRPWDNPRP, -0.00183.
As for RRIRMRPPRLPRPRPRPETNPRP, the figure is 2.42.
The value for RRIRSRPPRLPRPRPRPAPMPRP was 0.492; that for RRIRFRPPRLPRPRPRPIQVPRP was -0.228.
For RRIRGRPPRLPRPRPRPSLLPRP, the “shrunken log2 fold change” value is 0.547.
As for RRIRRRPPRLPRPRPRPSWQPRP, the figure is 0.133.
As for RRIRNRPPRLPRPRPRPCPVPRP, the figure is -0.438.
As for RRIRDRPPRLPRPRPRPKGLPRP, the “shrunken log2 fold change” value worked out at 0.253.
The value for RRIRVRPPRLPRPRPRPIIMPRP was 0.0741; that for RRIRFRPPRLPRPRPRPSHEPRP was 0.204; that for RRIRVRPPRLPRPRPRPCEYPRP was -0.00327.
The value for RRIRCRPPRLPRPRPRPNQDPRP was -0.348; that for RRIRGRPPRLPRPRPRPSLKPRP was 0.441.
Regarding RRIRARPPRLPRPRPRPNSFPRP, the “shrunken log2 fold change” value was -0.232.
The value for RRIRDRPPRLPRPRPRPRCWPRP was 0.923; that for RRIRWRPPRLPRPRPRPRNCPRP was -0.00862; that for RRIRIRPPRLPRPRPRPRVTPRP was -0.0426.
RRIRNRPPRLPRPRPRPWSQPRP: the “shrunken log2 fold change” value was -0.0539.
The value for RRIRVRPPRLPRPRPRPAQTPRP was 0.442; that for RRIRDRPPRLPRPRPRPNRPPRP was 0.0951.
The value for RRIRGRPPRLPRPRPRPHSHPRP was 0.303; that for RRIRIRPPRLPRPRPRPCFPPRP was -0.569; that for RRIRPRPPRLPRPRPRPTPMPRP was 0.208.
As for RRIRRRPPRLPRPRPRPLQMPRP, the “shrunken log2 fold change” value was -0.133.
As for RRIRPRPPRLPRPRPRPDVWPRP, the figure is 0.266.
As for RRIRCRPPRLPRPRPRPPGEPRP, the figure is 0.609; as for RRIRERPPRLPRPRPRPLDSPRP, -0.344; as for RRIRQRPPRLPRPRPRPDKKPRP, -0.0704.
